Measured values reported in patent US10154957B2, “Microneedle device having a peptide therapeutic agent and an amino acid and methods of making and using the same” (3M INNOVATIVE PROPERTIES COMPANY, priority 2011, dated 2018).

Columns and labels:
Assay type in all cases: physicochemical
[1] = Stability of PTH in coating on flood-coated microneedle arrays stored at 40° C./96% RH (HPLC); settings: PTH 10 mg/mL in PBS
Protocol: (§1) The protein or polypeptide content in the formulation coated on the microneedle arrays was determined using an Agilent 1100 HPLC system (Agilent Technologies, Wilmington, Del.) equipped with a binary pump, well-plated thermostated autosampler, thermostated column compartment, and a diode array UV detector. A Zorbax 300SB-C8 column (Agilent Technologies, Wilmington, Del.) having a 5 μm particle size and 2.1×150 mm inner diameter was used for the separations. The column was maintained at 50° C. The mobile phase consisted of two eluents. Eluent A was 0.1% TFA (trifluoroacetic acid) in water and eluent B was 0.1% TFA in acetonitrile (Spectrum Chemical, New Brunswick, N.J.). A linear gradient from 80/20 to 50/50 (A/B) was applied over 30 minutes. The flow rate was 0.4 mL/minute and the UV detection wavelength was set at 214 nm. The total run time was 34 minutes and the sample injection volume was 15 μL.
(§2) Microneedle arrays were coated with either the sample or the control formulation. The coating was applied by dropwise addition of 50 μL of the formulation to the portion of the array defined by the octagon shaped pattern of microneedles. The flood coated arrays (both sample and control formulation coated) were dried in an oven at 35° C. for about 15 hours.
After drying, the coated arrays were placed in a storage chamber that was maintained at 40° C. and 96% relative humidity (RH). […] The arrays used as reference standards were stored in a refrigerator at about 4° C. and analyzed within one day of being prepared.

[2] = Stability of salmon calcitonin in coating on flood-coated microneedle arrays stored at 40° C./96% RH (HPLC); settings: salmon calcitonin 5 mg/mL in PBS
Protocol: as §1
as §2, with “A sample formulation containing 5 mg/mL of salmon calcitonin and 12 mg/mL of L-histidine monohydrochloride (His-HCl) in PBS was prepared. The pH of the sample formulation was 5.5. A control formulation was also prepared containing 5 mg/mL of salmon calcitonin in PBS. […] The pH of the control formulation was 6.0-6.5. Microneedle” for “Microneedle”
(§3) After drying, the coated arrays were placed in a storage chamber that was maintained at 40° C. and 96% relative humidity (RH). The salmon calcitonin content of the coated arrays was determined following storage in the chamber for 1, 3, 7, and 14 days. At the designated time point, an array was taken from the chamber and washed with PBS (1 mL) to remove the coating from the array. An aliquot of the resulting wash solution was analyzed for salmon calcitonin content using the HPLC method described above. Reference standards were prepared by measuring the initial salmon calcitonin content of freshly coated arrays (both sample and control formulation coated). The arrays used as reference standards were stored in a refrigerator at about 4° C. and analyzed within one day of being prepared. The percentage of undegraded salmon calcitonin remaining in the coating at each time point was determined by measuring the peak area for salmon calcitonin in the selected coating and dividing it by the peak area measured for salmon calcitonin in the corresponding reference standard.
The same procedure as described in Example 3 was used with the exception that the sample formulation contained 12 mg/mL of L-arginine hydrochloride, instead of L-histidine monohydrochloride. The pH of the sample formulation was 6.0-6.5.

[3] = Stability of lysozyme in coating on flood-coated microneedle arrays stored at 40° C./96% RH (HPLC); settings: lysozyme 10 mg/mL in PBS
Protocol: as §1
as §2, with “A sample formulation containing 10 mg/mL of lysozyme and 12 mg/mL of L-histidine monohydrochloride (His-HCl) in PBS was prepared. The pH of the sample formulation was 5.5-6.0. A control formulation was also prepared containing 10 mg/mL of lysozyme in PBS. […] The pH of the control formulation was 6.5. Microneedle” for “Microneedle”
as §3, with “lysozyme” for “salmon calcitonin”, “(2” for “(1”, “lysozyme” for “initial salmon calcitonin”
The same procedure as described in Example 7 was used with the exception that the sample formulation contained 12 mg/mL of L-arginine hydrochloride, instead of L-histidine monohydrochloride. The pH of the sample formulation was 6.5.

[4] = Amino Acid L-Arginine (Arg-HCl 12 mg/mL), Day 1 at 40° C./96% RH
[5] = Amino Acid L-Arginine (Arg-HCl 12 mg/mL), Day 3 at 40° C./96% RH
[6] = Amino Acid L-Arginine (Arg-HCl 12 mg/mL), Day 7 at 40° C./96% RH
[7] = Amino Acid L-Arginine (Arg-HCl 12 mg/mL), Day 14 at 40° C./96% RH
[8] = Amino Acid L-Arginine (Arg-HCl 12 mg/mL), Initial
[9] = Amino Acid L-Histidine (His-HCl 12 mg/mL), Day 1 at 40° C./96% RH
[10] = Amino Acid L-Histidine (His-HCl 12 mg/mL), Day 3 at 40° C./96% RH
[11] = Amino Acid L-Histidine (His-HCl 12 mg/mL), Day 7 at 40° C./96% RH
[12] = Amino Acid L-Histidine (His-HCl 12 mg/mL), Initial
[13] = Amino Acid None (control), Day 1 at 40° C./96% RH
[14] = Amino Acid None (control), Day 3 at 40° C./96% RH
[15] = Amino Acid None (control), Day 7 at 40° C./96% RH
[16] = Amino Acid None (control), Day 14 at 40° C./96% RH
[17] = Amino Acid None (control), Initial
[18] = Amino Acid L-Histidine (His-HCl 12 mg/mL), Day 14 at 40° C./96% RH

parathyroid hormone (1-34) (human) [PTH]
Percent of Initial PTH Content in the Coating [1, 4]: 3.5% | Percent of Initial PTH Content in the Coating [1, 5]: 0.8% | Percent of Initial PTH Content in the Coating [1, 6]: 0.4% | Percent of Initial PTH Content in the Coating [1, 7]: 0% | Percent of Initial PTH Content in the Coating [1, 8]: 100% | Percent of Initial PTH Content in the Coating [1, 9]: 85.2% | Percent of Initial PTH Content in the Coating [1, 10]: 60.3% | Percent of Initial PTH Content in the Coating [1, 11]: 23.1% | Percent of Initial PTH Content in the Coating [1, 12]: 100% | Percent of Initial PTH Content in the Coating [1, 13]: 1.3% | Percent of Initial PTH Content in the Coating [1, 14]: 0% | Percent of Initial PTH Content in the Coating [1, 15]: 0% | Percent of Initial PTH Content in the Coating [1, 16]: 0% | Percent of Initial PTH Content in the Coating [1, 17]: 100%

Salmon calcitonin
Percent of Initial Salmon Calcitonin Content in the Coating [2, 4]: 5.8% | Percent of Initial Salmon Calcitonin Content in the Coating [2, 5]: 0.3% | Percent of Initial Salmon Calcitonin Content in the Coating [2, 6]: 0% | Percent of Initial Salmon Calcitonin Content in the Coating [2, 7]: 0% | Percent of Initial Salmon Calcitonin Content in the Coating [2, 8]: 100% | Percent of Initial Salmon Calcitonin Content in the Coating [2, 9]: 30.3% | Percent of Initial Salmon Calcitonin Content in the Coating [2, 10]: 31.7% | Percent of Initial Salmon Calcitonin Content in the Coating [2, 11]: 7.5% | Percent of Initial Salmon Calcitonin Content in the Coating [2, 18]: 2.7% | Percent of Initial Salmon Calcitonin Content in the Coating [2, 12]: 100% | Percent of Initial Salmon Calcitonin Content in the Coating [2, 13]: 21.5% | Percent of Initial Salmon Calcitonin Content in the Coating [2, 14]: 0.9% | Percent of Initial Salmon Calcitonin Content in the Coating [2, 15]: 0.1% | Percent of Initial Salmon Calcitonin Content in the Coating [2, 16]: 0% | Percent of Initial Salmon Calcitonin Content in the Coating [2, 17]: 100%

lysozyme
Percent of Initial Lysozyme Content in the Coating [3, 4]: 52.6% | Percent of Initial Lysozyme Content in the Coating [3, 5]: 33.1% | Percent of Initial Lysozyme Content in the Coating [3, 6]: 22.4% | Percent of Initial Lysozyme Content in the Coating [3, 7]: 23.0% | Percent of Initial Lysozyme Content in the Coating [3, 8]: 100% | Percent of Initial Lysozyme Content in the Coating [3, 9]: 100.0% | Percent of Initial Lysozyme Content in the Coating [3, 10]: 80.6% | Percent of Initial Lysozyme Content in the Coating [3, 11]: 60.1% | Percent of Initial Lysozyme Content in the Coating [3, 18]: 53.3% | Percent of Initial Lysozyme Content in the Coating [3, 12]: 100% | Percent of Initial Lysozyme Content in the Coating [3, 13]: 26.9% | Percent of Initial Lysozyme Content in the Coating [3, 14]: 4.4% | Percent of Initial Lysozyme Content in the Coating [3, 15]: 1.9% | Percent of Initial Lysozyme Content in the Coating [3, 16]: 1.9% | Percent of Initial Lysozyme Content in the Coating [3, 17]: 100%
